Source: US20240358849A1 (SUZHOU FUSE BIOSCIENCES, published 2024)
Positions count from the first letter of the chain named. Names may count otherwise. One block for each binder: values may come before it.

Legend:
[1] = target: T1, human Fibroblast Activation Protein (FAP), soluble antigen (human, UniProt Q12884 26-760, biotinylated when immobilized on streptavidin sensors); test: BLI per 6.1.3, human FAP;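 note: biolayer interferometry with immobilized antigen on sensors, antibody association up to 240 s then dissociation up to 420 s, reference-subtracted, global 1:1 fit with unlinked Rmax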
T1 construct: also called hFAP; biotinylated FAP

[2] = target: T1, human Fibroblast Activation Protein …; test: BLI; Table 11, antibody variants (Fab/scFv)
[3] = target: T2, human interleukin-2 (IL-2), wild type (human, UniProt P60568 21-153, biotinylated when immobilized); test: BLI; Table 11 (N.B. = no detectable binding)
T2 construct: also called biotinylated IL-2; IL2 WT

[4] = target: T1, human Fibroblast Activation Protein …; test: BLI (Gator), biotinylated FAP on streptavidin sensor
[5] = target: T1, human Fibroblast Activation Protein …; test: BLI per 6.1.3
[6] = target: T3, human FAP expressed on cells (HEK 293T-hFAP-E5; ExpiCHO-hFAP) (human, UniProt Q12884 1-760); test: cell-based or functional assay
[7] = target: T4, IL-2hex, mutant human IL-2 (deltaA1/T3A/F42A/Y45A/L72G/C125S) (human, UniProt P60568 22-153); test: cell-based or functional assay
T4 chain: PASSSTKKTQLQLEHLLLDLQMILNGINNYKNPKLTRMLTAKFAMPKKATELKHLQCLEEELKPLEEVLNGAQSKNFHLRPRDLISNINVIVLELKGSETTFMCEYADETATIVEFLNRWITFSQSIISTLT

[8] = target: T1, human Fibroblast Activation Protein …; test: Affinity (nM), Table 13B
[9] = target: T4, IL-2hex, mutant human IL-2 …; test: Affinity (nM), Table 13B
[10] = target: T4, IL-2hex, mutant human IL-2 …; test: BLI per 6.1.3; column head IL-2 KD
[11] = target: T3, human FAP expressed on cells (HEK …); test: flow cytometry, 1 µg/mL antibody
[12] = target: T1, human Fibroblast Activation Protein …; test: BLI, small-scale crude lysate

T2 sequence (P60568 21-153): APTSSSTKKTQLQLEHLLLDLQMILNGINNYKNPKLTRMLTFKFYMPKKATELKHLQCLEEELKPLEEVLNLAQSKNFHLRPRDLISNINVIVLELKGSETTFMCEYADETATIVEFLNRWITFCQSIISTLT

B6: anti-FAP antibody 872-70 (antibody, V domains shown)
VH: EVQLVESGGGLVQPGGSLRLSCAASGFTFSRYSMSWVRQAPGKGLEWVSYITSTDGTTDYADSVKGRFTISRDNSKNTLYLQMNSLRAEDTAVYYCARSQYGRYYSPDYYFDYWGQGTLVTVSS
VL: DIQMTQSPSSLSASVGDRVTITCRASQSISSYLNWYQQKPGKAPKLLIYAASSLQSGVPSRFSGSGSGTDFTLTISSLQPEDFATYYCQQSRTSPYTFGQGTKVEIKR
notes: also called IgG 70; FAP70
Kd [2]: < 1 nM
binding result [3]: no binding
Kd [4]: < 1 nM
kon [4]: 110000 M⁻¹ s⁻¹

B8: D029 HV3LV4 (bispecific antibody, V domains shown)
VH: EVQLVESGGGLVQPGGSLRLSCAASGFTFRWFFMSWVRQAPGKGLEWVSWIGPSGLYTDYADSVKGRFTISRDNSKNTLYLQMNSLRAEDTAVYYCARSQYGRYYSPDYYFDYWGQGTLVTVSS
VL: B6 VL with Q27G, S28A, I29L, S30G, S31F, Q55S, S91G, S94Y, Y96L
notes: also called D029-Rev1:Q27G:P94Y/S55L:T30R:S32F
Kd [5]: 1.8 nM
EC50 of HEK-Blue IL2 assay (pM) with HEK 293T-hFAP-E5; variant as masking moiety of a configuration 3 immunoconjugate [6]: 208 pM
EC50 of HEK-Blue IL2 assay (pM) with HEK 293T; variant as masking moiety of a configuration 3 immunoconjugate [7]: 4120 pM
Kd [8]: 2.3 nM
Kd [9]: 528 nM
Kd [10]: 1100 nM

B9: D029-HV1LV4 (bispecific antibody, V domains shown)
VH: B8 VH with R30T, F32S
VL: B6 VL with Q27G, S28A, I29L, S30G, S31F, Q55S, S91G, S94Y, Y96L
notes: also called Rev1:Q27G:P94Y/S55L; D029HVILV4 (so in the source)
Kd [12]: ~100 nM

B11: D029 T30R:S55L/LV1 (bispecific antibody, V domains shown)
VH: B8 VH with F32S
VL: B6 VL with S28A, I29L, S30G, S31F, Q55S, S91G, S94P, Y96L
notes: also called Rev1/S55L:T30R
Kd [12]: ~100 nM

B12: D029 LV4 (Rev1:Q27G:P94Y) (bispecific antibody, V domains shown)
VH: B8 VH with R30T, F32S, L56S
VL: B6 VL with Q27G, S28A, I29L, S30G, S31F, Q55S, S91G, S94Y, Y96L
Kd [12]: ~100 nM

B14: D029 HV2LV2 (bispecific antibody, V domains shown)
VH: B8 VH with R30T
VL: B6 VL with Q27G, S28A, I29L, S30G, S31F, Q55S, S91G, S94Y, Y96F
notes: also called Rev1-Q27G:P94Y:L96F/S55L:S32F
Kd [5]: 1.98 nM
EC50 of HEK-Blue IL2 assay (pM) with HEK 293T-hFAP-E5; variant as masking moiety of a configuration 3 immunoconjugate [6]: 27 pM
EC50 of HEK-Blue IL2 assay (pM) with HEK 293T; variant as masking moiety of a configuration 3 immunoconjugate [7]: 6060 pM
Kd [8]: 2 nM
Kd [9]: 419 nM
Kd [10]: 419 nM

B15: D029 HV3LV2 (bispecific antibody, V domains shown)
VH: B8 VH
VL: B6 VL with Q27G, S28A, I29L, S30G, S31F, Q55S, S91G, S94Y, Y96F
notes: also called D029L-Rev1:Q27G:P94Y:L96F/S55L:T30R:S32F
Kd [5]: 3.58 nM
EC50 of HEK-Blue IL2 assay (pM) with HEK 293T-hFAP-E5; variant as masking moiety of a configuration 3 immunoconjugate [6]: 186 pM
EC50 of HEK-Blue IL2 assay (pM) with HEK 293T; variant as masking moiety of a configuration 3 immunoconjugate [7]: 5330 pM
Kd [8]: 100 nM
Kd [9]: 100 nM
Kd [10]: 331 nM

B16: D029VH T30R:S55L/LV4 (bispecific antibody, V domains shown)
VH: B8 VH with F32S
VL: B6 VL with Q27G, S28A, I29L, S30G, S31F, Q55S, S91G, S94Y, Y96L
notes: also called Rev1:Q27G:P94Y/S55L:T30R
Kd [12]: ~100 nM

B17: D029 HV5LV1 (bispecific antibody, V domains shown)
VH: B8 VH with F32A
VL: B6 VL with S28A, I29L, S30G, S31F, Q55S, S91G, S94P, Y96L
notes: also called Rev1/S55L:T30R:S32A
Kd [5]: > 100 nM
EC50 of HEK-Blue IL2 assay (pM) with HEK 293T-hFAP-E5; variant as masking moiety of a configuration 3 immunoconjugate [6]: 41 pM
EC50 of HEK-Blue IL2 assay (pM) with HEK 293T; variant as masking moiety of a configuration 3 immunoconjugate [7]: 5630 pM
Kd [8]: 3.6 nM
Kd [9]: 331 nM
Kd [10]: 100 nM

B18: D029 HV2LV4 (bispecific antibody, V domains shown)
VH: B8 VH with R30T
VL: B6 VL with Q27G, S28A, I29L, S30G, S31F, Q55S, S91G, S94Y, Y96L
notes: also called Rev1-Q27G:P94Y/S55L:S32F
Kd [5]: 1.53 nM
EC50 of HEK-Blue IL2 assay (pM) with HEK 293T-hFAP-E5; variant as masking moiety of a configuration 3 immunoconjugate [6]: 43 pM
EC50 of HEK-Blue IL2 assay (pM) with HEK 293T; variant as masking moiety of a configuration 3 immunoconjugate [7]: 5140 pM
Kd [8]: 1.5 nM
Kd [9]: 1590 nM
Kd [10]: 1590 nM

The next lines start with the values.

Kd [1]: 7.3 nM
koff [1]: 0.00201 s⁻¹
kon [1]: 277000 M⁻¹ s⁻¹
Kd [2]: 7 nM
binding result [3]: no binding
Kd [4]: 6.6 nM
koff [4]: 0.0028 s⁻¹
kon [4]: 420000 M⁻¹ s⁻¹
B1: anti-FAP antibody 872-5 (antibody, V domains shown)
VH: EVQLVESGGGLVQPGGSLRLSCAASGFTFRGYIMSWVRQAPGKGLEWVSWISPEGSRTGYADSVKGRFTISRDNSKNTLYLQMNSLRAEDTAVYYCARLQYGTWFDYWGQGTLVTVSS
VL: B6 VL with S91A, R92T, T93L, S94L, P95L, Y96P
notes: monovalent Fab-Fc (knob-in-hole) for KD per 6.1.3; also called IgG 5; FAP5

Kd [5]: 2.31 nM
EC50 of HEK-Blue IL2 assay (pM) with HEK 293T-hFAP-E5; variant as masking moiety of a configuration 3 immunoconjugate [6]: 78 pM
EC50 of HEK-Blue IL2 assay (pM) with HEK 293T; variant as masking moiety of a configuration 3 immunoconjugate [7]: 9260 pM
Kd [8]: 1.8 nM
Kd [9]: 1100 nM
Kd [10]: 528 nM
B2: D029 HV2LV1 (bispecific antibody, V domains shown)
VH: B8 VH with R30T
VL: B6 VL with S28A, I29L, S30G, S31F, Q55S, S91G, S94P, Y96L
notes: also called Rev1/S55L:S32F

binding result [11]: binds
B3: antibody D003 (antibody, V domains shown)
VH: EVQLVESGGGLVQPGGSLRLSCAASGFTFYTYIMSWVRQAPGKGLEWVSSIGPSYGDTIYADSVKGRFTISRDNSKNTLYLQMNSLRAEDTAVYYCARTISYSQYAYGYSFDYWGQGTLVTVSS
VL: B6 VL with S91T, T93S, S94Y, P95L, Y96P

Kd [2]: 16 nM
binding result [3]: no binding
Kd [4]: 15.5 nM
koff [4]: 0.0056 s⁻¹
kon [4]: 360000 M⁻¹ s⁻¹
B4: anti-FAP antibody 872-59 (antibody, V domains shown)
VH: B3 VH with Y30T, T31S, I33A, G52Y, P53S, S54W, D57T, I59S
VL: B6 VL with S91A, R92F, Y96R
notes: also called IgG 59; FAP59

binding result [11]: binds
B5: two-in-one antibody D049 (bispecific antibody, V domains shown)
VH: B1 VH with R30F, G31S, I33W, W50T, E54Y, G55D, R57S, G59A, Q100L
VL: B6 VL with S28I, I29V, S30R, S31T, S91G, R92A, T93Q, S94L, P95Q, Y96P

Kd [12]: ~100 nM
B7: D029 VH-S55L:T30R (bispecific antibody, V domains shown)
VH: B8 VH with F32S
VL: B6 VL with S28D, I29G, S30G, S31N, A50G, S53T, Q55Y, S91G, S94P, Y96L

Kd [12]: ~100 nM
B10: D029-HV1LV2 (bispecific antibody, V domains shown)
VH: B8 VH with R30T, F32S
VL: B6 VL with Q27G, S28A, I29L, S30G, S31F, Q55S, S91G, S94Y, Y96F
notes: also called Rev1:Q27G:P94Y:L96F/S55L; D029HVILV2 (so in the source)

Kd [12]: ~100 nM
B13: D029VH T30R:S55L/LV2 (bispecific antibody, V domains shown)
VH: B8 VH with F32S
VL: B6 VL with Q27G, S28A, I29L, S30G, S31F, Q55S, S91G, S94Y, Y96F
notes: also called Rev1:Q27G:P94Y:L96F/S55L:T30R
